Data as given in patent US20230110249A1 (University of California, published 2023).

B1: anti-human ROR1 antibody 99961 (antibody, V domains shown)
VH: EIQLQQSGPVLVKPGASVKVSCKASGYAFTAYNIHWVRQSHGKRLEWIGSFDPYDGGSSYNQKFKDKATLTVDKSSTTAYMHLNSLTSEDSAVYYCARGWYYFDYWGHGTTLTVSS
VL: DVQITQSPSYLAASPGETITINCRASKSISKYLAWYQEKPGKTNKLLIYSGSTLQSGIPSRFRGSGSGTDFTLTISSLEPEDFAMYYCQQHDESPYTFGEGTKLEIK
notes: also called Ab9991
B2: anti-ROR1 monoclonal antibody D10 (antibody, V domains shown)
VH: QVQLKESGPGLVAPSQTLSITCTVSGFSLTSYGVHWVRQPPGKGLEWLGVIWAGGFTNYNSALKSRLSISKDNSKSQVLLKMTSLQTDDTAMYYCARRGSSYSMDYWGQGTSVIVSS
VL: EIVLSQSPAITAASLGQKVTITCSASSNVSYIHWYQQRSGTSPRPWIYEISKLASGVPVRFSGSGSGTSYSLTISSMEAEDAAIYYCQQWNYPLITFGSGTKLEIQ

How the values were obtained:
[1] = molecular target: T1, human ROR1 protein (construct not stated) (human, UniProt Q01973 30-406, limits assumed); test: method not stated (FIG. 12)
T1 construct: also called hROR1

[2] = molecular target: recombinant human ROR1 protein with the mouse amino acid residue at position 138 (human, UniProt Q01973 30-406, limits assumed); test: immunoblot after non-denaturing PAGE (FIG. 10)
Text: Constructs depicted in FIG. 6 were used to select high affinity recombinant antibodies. […] Human and chimeric ROR1-ex constructs were transfected into 293 cells. This allowed for production of recombinant human-mouse chimeric ROR1 proteins that could be size separated in a non-denaturing PAGE gel or SDS PAGE gel for immunoblot analysis with different anti-ROR1 mAb. […] The full human extracellular domain is provided on the far left lane of either gel (FIG. 11).

[3] = molecular target: T1, human ROR1 protein (construct not …); test: method not stated (binding affinity; FIG. 12C)

T1 sequence (Q01973 30-406 limits assumed): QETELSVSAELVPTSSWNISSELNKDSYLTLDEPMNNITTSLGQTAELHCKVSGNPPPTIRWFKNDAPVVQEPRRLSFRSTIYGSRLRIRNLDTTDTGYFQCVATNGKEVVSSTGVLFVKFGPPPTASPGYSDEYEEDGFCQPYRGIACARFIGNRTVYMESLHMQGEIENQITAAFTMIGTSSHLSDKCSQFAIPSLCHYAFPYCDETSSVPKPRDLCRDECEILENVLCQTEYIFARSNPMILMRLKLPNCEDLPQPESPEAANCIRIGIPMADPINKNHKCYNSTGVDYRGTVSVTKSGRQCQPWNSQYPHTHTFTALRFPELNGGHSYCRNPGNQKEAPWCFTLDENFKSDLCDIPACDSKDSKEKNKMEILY
Sequence of recombinant human ROR1 protein with the mouse amino acid residue at position 138 (Q01973 30-406 E138K limits assumed): as the sequence (Q01973 30-406 limits assumed) above, with E109K counted along it

Row | Binder | fold higher binding affinity than D10 [1] | binding result [2] | Kd [3]
1 | B1 | 50 fold | no binding | 0.8 nM
2 | B2 | – | – | 41 nM
